In the supplement of paper PMC10724198:
± gives the standard deviation of the averaged measurements.

How the values were obtained:
Saccharomyces cerevisiae [1] = test: protein stability index of tFT-peptide fusion (C-terminal peptide) (PSI (0-1 scale)); higher = more stable (slower turnover); settings: genetic background: wild type; temperature: 30 C
Saccharomyces cerevisiae [2] = test: as above
Experimental: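 MPS profiling in S. cerevisiae of the tFT-X12 degron library: putative degron peptides plus stable controls, 12 aa, fused to the C-terminus of a sfGFP-mCherry timer. Cells are FACS-sorted into 8 mCherry/sfGFP bins and deep-sequenced. PSI runs from 0 (unstable) to 1 (stable). Backgrounds are wild type, das1Δ and doa10Δ at 30 °C, and wild type, das1Δ, cdc34-1 and cdc53-1 at 37 °C; 2-3 technical replicates each.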

[3] = genetic background: cdc34-1, temperature: 37 C
[4] = genetic background: cdc53-1, temperature: 37 C
[5] = genetic background: das1 deletion, temperature: 30 C
[6] = genetic background: das1 deletion, temperature: 37 C
[7] = genetic background: doa10 deletion, temperature: 30 C
[8] = genetic background: wild type, temperature: 30 C
[9] = genetic background: wild type, temperature: 37 C
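Note: PSI is a weighted mean of sequencing reads over stability bins, variants kept only with over 10 reads, mCherry proximal and sfGFP distal, peptide attached via GGGS linker.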

| Sequence | protein stability index (Saccharomyces cerevisiae [1]) | protein stability index (Saccharomyces cerevisiae [2]; [3]) | protein stability index (Saccharomyces cerevisiae [2]; [4]) | protein stability index (Saccharomyces cerevisiae [2]; [5]) | protein stability index (Saccharomyces cerevisiae [2]; [6]) | protein stability index (Saccharomyces cerevisiae [2]; [7]) | protein stability index (Saccharomyces cerevisiae [2]; [8]) | protein stability index (Saccharomyces cerevisiae [2]; [9]) |
| --- | --- | --- | --- | --- | --- | --- | --- | --- |
| MRGPAWVCVLYS | 0.485 ± 0.028 | 0.637 ± 0.026 | 0.711 ± 0.012 | 0.59 ± 0.044 | 0.69291 ± 0.00012 | 0.284 ± 0.0086 | 0.339 ± 0.023 | 0.5348 ± 0.0048 |
| VFVMVLCALFYF | 0.279 ± 0.022 | 0.248 ± 0.034 | 0.282 ± 0.04 | 0.242 ± 0.032 | 0.38 ± 0.032 | 0.2436 ± 0.0014 | 0.236 ± 0.017 | 0.319 ± 0.015 |
| GKWFSWNAIWIR | 0.145 ± 0.049 | 0.0949 ± 0.11 | 0.0354 ± 0.0075 | 0.101 ± 0.025 | 0.1 ± 0.02 | 0.6114 ± 0.0025 | 0.0762 ± 0.029 | 0.101 ± 0.046 |
| VLCFTSAYHRLV | 0.425 ± 0.049 | 0.662 ± 0.017 | 0.739 ± 0.015 | 0.631 ± 0.0098 | 0.724 ± 0.014 | 0.206 ± 0.014 | 0.262 ± 0.019 | 0.5171 ± 0.0028 |
| VGDVVWFGVGAG | 0.761 ± 0.023 | 0.733 ± 0.033 | 0.7757 ± 0.0042 | 0.662 ± 0.0049 | 0.782 ± 0.0084 | 0.662 ± 0.022 | 0.6566 ± 0.005 | 0.7438 ± 0.0022 |
| FVLWWGWSWLVV | 0.235 ± 0.019 | 0.213 ± 0.01 | 0.30626 ± 6.5e-05 | 0.173 ± 0.027 | 0.318 ± 0.0055 | 0.152 ± 0.0023 | 0.16 ± 0.016 | 0.2824 ± 0.00063 |
| FRCPHAVKLVLV | 0.311 ± 0.02 | 0.384 ± 0.021 | 0.404 ± 0.016 | 0.328 ± 0.037 | 0.471 ± 0.011 | 0.1947 ± 0.0014 | 0.214 ± 0.018 | 0.33212 ± 0.00028 |
| DSSRRKRLICMN | 0.25 ± 0.093 | 0.611 ± 0.016 | 0.702 ± 0.032 | 0.656 ± 0.015 | 0.731 ± 0.008 | 0.18 ± 0.016 | 0.21 ± 0.032 | 0.341 ± 0.017 |
| RRRRHVDHSTQR | 0.4737 ± 0.0036 | 0.495 ± 0.04 | 0.572 ± 0.0085 | 0.542 ± 0.011 | 0.582 ± 0.011 | 0.557 ± 0.038 | 0.554 ± 0.045 | 0.5704 ± 0.0037 |
| CKYCKCVVLLWS | 0.434 ± 0.037 | 0.53 ± 0.052 | 0.605 ± 0.013 | 0.385 ± 0.037 | 0.6012 ± 0.00065 | 0.2932 ± 0.0013 | 0.334 ± 0.034 | 0.536 ± 0.01 |
| PYSLYASSSSPL | 0.727 ± 0.024 | 0.696 ± 0.045 | 0.7492 ± 0.0029 | 0.68 ± 0.023 | 0.748 ± 0.019 | 0.6716 ± 0.0016 | 0.676 ± 0.017 | 0.716 ± 0.015 |
| HANPGTFGPCTR | 0.696 ± 0.048 | 0.654 ± 0.019 | 0.7204 ± 0.006 | 0.645 ± 0.012 | 0.72 ± 0.0081 | 0.658 ± 0.019 | 0.6499 ± 0.0061 | 0.683 ± 0.017 |
| TVERKMYWQRWG | 0.391 ± 0.045 | 0.666 ± 0.029 | 0.745 ± 0.025 | 0.641 ± 0.011 | 0.754 ± 0.01 | 0.1794 ± 0.00073 | 0.187 ± 0.0033 | 0.4975 ± 0.0044 |
| YCAMVAVGVVGG | 0.509 ± 0.03 | 0.468 ± 0.037 | 0.506 ± 0.025 | 0.329 ± 0.021 | 0.503 ± 0.0096 | 0.306 ± 0.016 | 0.334 ± 0.018 | 0.493 ± 0.012 |
| FGLLLVLASALG | 0.3828 ± 0.0021 | 0.356 ± 0.034 | 0.438 ± 0.026 | 0.318 ± 0.022 | 0.465 ± 0.018 | 0.284 ± 0.024 | 0.307 ± 0.019 | 0.4411 ± 0.0012 |
| FGLMCFIFYVLV | 0.307 ± 0.057 | 0.2 ± 0.018 | 0.331 ± 0.03 | 0.236 ± 0.021 | 0.3756 ± 0.0017 | 0.223 ± 0.016 | 0.225 ± 0.018 | 0.337 ± 0.0078 |
| VCLVFVVRPCIR | 0.4904 ± 0.0027 | 0.549 ± 0.021 | 0.578 ± 0.023 | 0.436 ± 0.033 | 0.606 ± 0.022 | 0.401 ± 0.0078 | 0.414 ± 0.023 | 0.599 ± 0.0089 |
| FWWVGCGWCRWG | 0.378 ± 0.011 | 0.619 ± 0.019 | 0.73 ± 0.023 | 0.602 ± 0.036 | 0.708 ± 0.011 | 0.2446 ± 0.0022 | 0.269 ± 0.025 | 0.4351 ± 0.00096 |
| VLLCFFLGIVGF | 0.396 ± 0.045 | 0.36 ± 0.045 | 0.487 ± 0.035 | 0.322 ± 0.024 | 0.488 ± 0.011 | 0.296 ± 0.0087 | 0.299 ± 0.012 | 0.489 ± 0.027 |
| FRFSSLLYILLS | 0.0959 ± 0.022 | 0.223 ± 0.067 | 0.274 ± 0.018 | 0.316 ± 0.017 | 0.402 ± 0.016 | 0.0923 ± 0.012 | 0.0651 ± 0.018 | 0.0868 ± 0.021 |

| Sequence | protein stability index (Saccharomyces cerevisiae [1]) | protein stability index (Saccharomyces cerevisiae [2]; [3]) | protein stability index (Saccharomyces cerevisiae [2]; [4]) | protein stability index (Saccharomyces cerevisiae [2]; [5]) | protein stability index (Saccharomyces cerevisiae [2]; [6]) | protein stability index (Saccharomyces cerevisiae [2]; [7]) | protein stability index (Saccharomyces cerevisiae [2]; [8]) | protein stability index (Saccharomyces cerevisiae [2]; [9]) |
| --- | --- | --- | --- | --- | --- | --- | --- | --- |
| FFTLSTVKLLRV | 0.508 ± 0.044 | 0.497 ± 0.025 | 0.521 ± 0.02 | 0.427 ± 0.022 | 0.552 ± 0.0087 | 0.385 ± 0.0046 | 0.412 ± 0.027 | 0.5379 ± 0.0018 |
| SRGRVLRLLLLV | 0.124 ± 0.0028 | 0.303 ± 0.0055 | 0.428 ± 0.013 | 0.393 ± 0.025 | 0.524 ± 0.0093 | 0.0727 ± 0.011 | 0.0574 ± 0.026 | 0.0678 ± 0.018 |
| GQRIKWGPIYLT | 0.249 ± 0.019 | 0.352 ± 0.079 | 0.336 ± 0.0081 | 0.366 ± 0.028 | 0.444 ± 0.013 | 0.397 ± 0.034 | 0.22 ± 0.027 | 0.365 ± 0.052 |
| VSRVHIRIEGNH | 0.528 ± 0.082 | 0.694 ± 0.027 | 0.755 ± 0.028 | 0.622 ± 0.017 | 0.7218 ± 0.0064 | 0.635 ± 0.026 | 0.634 ± 0.035 | 0.70121 ± 0.00047 |
| KVFWRPAWVAEV | 0.371 ± 0.026 | 0.6563 ± 0.0016 | 0.7475 ± 0.0067 | 0.631 ± 0.016 | 0.733 ± 0.0084 | 0.237 ± 0.011 | 0.28 ± 0.034 | 0.512 ± 0.013 |
| VLFLLLFVSRVA | 0.3312 ± 0.0014 | 0.2684 ± 0.0016 | 0.398 ± 0.017 | 0.259 ± 0.035 | 0.453 ± 0.016 | 0.203 ± 0.012 | 0.224 ± 0.03 | 0.381 ± 0.042 |
| SSRRVVLPLLVA | 0.202 ± 0.027 | 0.336 ± 0.057 | 0.402 ± 0.0094 | 0.309 ± 0.032 | 0.481 ± 0.0058 | 0.123 ± 0.011 | 0.136 ± 0.033 | 0.131 ± 0.027 |
| LAVFSSPELSFP | 0.756 ± 0.024 | 0.727 ± 0.012 | 0.788 ± 0.015 | 0.6631 ± 0.0019 | 0.761 ± 0.013 | 0.66 ± 0.034 | 0.676 ± 0.0088 | 0.777 ± 0.0036 |
| CMILVACFYLPS | 0.321 ± 0.004 | 0.285 ± 0.033 | 0.441 ± 0.061 | 0.29 ± 0.024 | 0.455 ± 0.017 | 0.248 ± 0.0063 | 0.294 ± 0.017 | 0.428 ± 0.01 |
| SPIGIFCFILCR | 0.187 ± 0.049 | 0.0729 ± 0.011 | 0.0462 ± 0.023 | 0.153 ± 0.027 | 0.211 ± 0.016 | 0.176 ± 0.019 | 0.147 ± 0.038 | 0.157 ± 0.013 |
| FTGLCQGLWLGW | 0.738 ± 0.025 | 0.691 ± 0.019 | 0.743 ± 0.014 | 0.658 ± 0.059 | 0.775 ± 0.02 | 0.684 ± 0.039 | 0.649 ± 0.013 | 0.7501 ± 0.0044 |
| FPLFCRIHLLCS | 0.107 ± 0.0096 | 0.138 ± 0.0083 | 0.157 ± 0.0044 | 0.2 ± 0.017 | 0.275 ± 0.0037 | 0.059 ± 0.02 | 0.0768 ± 0.011 | 0.0529 ± 0.0047 |
| LSQPGWFKCCLS | 0.42 ± 0.013 | 0.653 ± 0.014 | 0.737 ± 0.05 | 0.662 ± 0.029 | 0.7677 ± 0.00079 | 0.308 ± 0.023 | 0.326 ± 0.023 | 0.463 ± 0.029 |
| RLINCIYVLMLP | 0.398 ± 0.029 | 0.567 ± 0.042 | 0.569 ± 0.0072 | 0.412 ± 0.029 | 0.606 ± 0.0037 | 0.261 ± 0.015 | 0.274 ± 0.033 | 0.513 ± 0.024 |
| RQALYFLMICGL | 0.421 ± 0.0045 | 0.508 ± 0.024 | 0.564 ± 0.023 | 0.407 ± 0.039 | 0.545 ± 0.0071 | 0.29391 ± 6e-05 | 0.318 ± 0.019 | 0.459 ± 0.027 |
| FLLYSILLAFLL | 0.436 ± 0.011 | 0.524 ± 0.034 | 0.503 ± 0.02 | 0.415 ± 0.033 | 0.546 ± 0.0071 | 0.37 ± 0.012 | 0.345 ± 0.033 | 0.492 ± 0.037 |
| WQSFRDKLIKGN | 0.264 ± 0.071 | 0.646 ± 0.044 | 0.716 ± 0.026 | 0.643 ± 0.028 | 0.754 ± 0.041 | 0.188 ± 0.034 | 0.204 ± 0.036 | 0.3754 ± 0.0012 |
| PHGLKPHCPTPS | 0.728 ± 0.02 | 0.685 ± 0.026 | 0.745 ± 0.021 | 0.654 ± 0.016 | 0.7368 ± 0.0034 | 0.674 ± 0.046 | 0.677 ± 0.01 | 0.73 ± 0.042 |
| RYCVVDISAFCD | 0.465 ± 0.0094 | 0.489 ± 0.017 | 0.576 ± 0.021 | 0.368 ± 0.029 | 0.5947 ± 0.0057 | 0.37 ± 0.017 | 0.388 ± 0.026 | 0.573 ± 0.024 |
